For experiment [1], the target named is receptor on murine NIH-3T3 fibroblast cells (ATCC No. CCL92) to which 125I-GRP binds (murine, UniProt P21729). Briefly: competition with 0.45 pM 125I-GRP on NIH-3T3 cells, filter assay. Here is the method: Each tube was charged with 4 ×10^4 cells. […] Three control tubes with no cells or competitor were prepared for measurement of total counts added.
The samples were incubated for 30 min at RT. The contents of each tube were transferred into the wells of a 96-well filter bottom plate (Millipore Multiscreen, Arlington Heights, Mass.) and filtered under moderate vacuum (water aspirator). Each filter was washed three times by filling each well with ice cold PBS, Ph 7.4, 0.1% BSA. The plate was allowed to dry. Dried filters were placed into gamma-counter tubes (12×75 mm glass). The radioactivity on each filter and in the control tubes was counted using a LKB gamma counter. The bound/total added for each assay tube was calculated.

Experiment [2] has as its target receptor on murine NIH-3T3 fibroblast cells (ATCC No. CCL92) to which 125I-GRP binds (murine) (UniProt P21729). Briefly: competition with […] 125I-GRP on NIH-3T3 cells; inhibitor at 10 nM.
The target is the same in experiment [3]. Put plainly: competition with […] 125I-GRP on NIH-3T3 cells; inhibitor at 100 nM.
Experiment [4] shares this target. Briefly: competition with […] 125I-GRP on NIH-3T3 cells; inhibitor at 1 nM.

Where no end group is shown, it is not given here.

Usually IC50 stands for the point on the concentration scale where inhibition reaches its midpoint.

receptor on murine NIH-3T3 fibroblast cells (ATCC No. CCL92) to which 125I-GRP binds (murine), sequence (P21729 whole entry): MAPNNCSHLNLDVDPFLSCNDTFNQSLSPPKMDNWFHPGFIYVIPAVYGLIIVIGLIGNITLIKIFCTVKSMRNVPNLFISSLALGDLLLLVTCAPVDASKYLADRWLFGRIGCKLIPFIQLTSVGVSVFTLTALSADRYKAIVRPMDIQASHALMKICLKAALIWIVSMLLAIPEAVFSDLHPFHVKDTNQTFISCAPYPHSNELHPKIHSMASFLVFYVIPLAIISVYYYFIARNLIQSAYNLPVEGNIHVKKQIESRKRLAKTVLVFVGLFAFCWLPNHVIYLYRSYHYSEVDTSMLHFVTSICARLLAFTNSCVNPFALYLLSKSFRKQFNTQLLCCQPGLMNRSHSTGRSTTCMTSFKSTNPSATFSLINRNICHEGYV

B1: Benzoic acid bis-thiosemicarbazide derived from N-acetyl-Neuromedin C-hydrazide, compound 6 (peptide)
peptide: Ac-GNHWAVGHLM
modifications: not fully specified (C-terminus); also: dimer: two chains on one 3,5-disubstituted benzoic acid via C-terminal thiosemicarbazides
Take B1: in experiment [1], the IC50 amounted to 43.3 nM.

B2: Benzoic acid bis-thiourea derived from Neuromedin-C, compound 3 (peptide)
peptide: GNHWAVGHLM-NH2
modifications: not fully specified (N-terminus); also: dimer: two chains on one 3,5-disubstituted benzoic acid via N-terminal thioureas
B2 showed an IC50 in experiment [1] of 10.6 nM.

B3: Neuromedin C (NMc, H-Gly-Asn-His-Trp-Ala-Val-Gly-His-Leu-Met-NH2) (peptide)
peptide: H-GNHWAVGHLM-NH2
In experiment [2], B3 returned a % BOUND (of I-125-GRP) of 1.7%, a % INHIBITION of 71% and an AVG CPM BOUND (of I-125-GRP) of 1130 CPM. In experiment [3], the % BOUND (of I-125-GRP) was determined as 1.4%, the % INHIBITION stood at 76% and the AVG CPM BOUND (of I-125-GRP) stood at 940 CPM. In experiment [4], the % BOUND (of I-125-GRP) stood at 2.2%, the % INHIBITION came out at 63% and the AVG CPM BOUND (of I-125-GRP) is 1420 CPM.

The record behind these values is patent publication US5578288, “Metal-binding targeted polypeptide constructs” (Cytogen Corporation, dated 1996).
